Laboratory results published in patent US20160333095A1 (Genmab, published 2016).
Substitutions are numbered along the chain they refer to. Names and notes keep the numbering of the source.

B1: bsIgG1-huCD3-H1L1×HER2-LFLEDA (bispecific antibody, V domains shown)
VH 1: EVKLVESGGGLVQPGGSLRLSCAASGFTFNTYAMNWVRQAPGKGLEWVARIRSKYNNYATYYADSVKDRFTISRDDSKSSLYLQMNNLKTEDTAMYYCVRHGNFGNSYVSWFAYWGQGTLVTVSS
VL 1: not shown
VH 2: QVQLVQSGAEVKKPGASVKVSCKASGYTFTNYGISWVRQAPGQGLEWMGWLSAYSGNTIYAQKLQGRVTMTTDTSTTTAYMELRSLRSDDTAVYYCARDRIVVRPDYFDYWGQGTLVTVSS
VL 2: EIVLTQSPATLSLSPGERATLSCRASQSVSSYLAWYQQKPGQAPRLLIYDASNRATGIPARFSGSGSGTDFTLTISSLEPEDFAVYYCQQRSNWPRTFGQGTKVEIK
notes: LFLEDA = L234F/L235E/D265A
B2: bsIgG1-huCD3-H1L3×HER2-LFLEDA (bispecific antibody, V domains shown)
VH 1: B1 VH 1
VL 1: QAVVTQEPSFSVSPGGTVTLTCRSSTGAVTTSNYANWVQQTPGQAFRGLIGGTNKRAPGVPARFSGSILGNKAALTITGAQADDESDYYCALWYSNLWVFGGGTKLTVL
VH 2: B1 VH 2
VL 2: B1 VL 2
notes: LFLEDA = L234F/L235E/D265A
B3: bsIgG1-huCD3-H3L3×HER2-LFLEDA (bispecific antibody, V domains shown)
VH 1: B1 VH 1 with Q13K, G16R, S80I, N87S
VL 1: B2 VL 1
VH 2: B1 VH 2
VL 2: B1 VL 2
notes: LFLEDA = L234F/L235E/D265A
B4: bsIgG1-huCD3-H4L1×HER2-LFLEDA (bispecific antibody, V domains shown)
VH 1: B1 VH 1 with Q13K, G16R, S80I, N87S, L120M
VL 1: not shown
VH 2: B1 VH 2
VL 2: B1 VL 2
notes: LFLEDA = L234F/L235E/D265A
B5: bsIgG1-huCD3-H4L3×HER2-LFLEDA (bispecific antibody, V domains shown)
VH 1: B1 VH 1 with Q13K, G16R, S80I, N87S, L120M
VL 1: B2 VL 1
VH 2: B1 VH 2
VL 2: B1 VL 2
notes: LFLEDA = L234F/L235E/D265A
B6: bsIgG1-huCD3-H1L1-LK55N/HER2-LFLEDA (bispecific antibody, V domains shown)
VH 1: B1 VH 1
VL 1: not shown
VH 2: B1 VH 2
VL 2: B1 VL 2
notes: LFLEDA = L234F/L235E/D265A; also called bsIgG1-huCD3-LK55N/HER2-LFLEDA
B7: IgG1-huCD3-H1L3-LFLEDA (antibody, V domains shown)
VH: B1 VH 1
VL: B2 VL 1
B8: IgG1-huCD3-H3L3-LFLEDA (antibody, V domains shown)
VH: B1 VH 1 with Q13K, G16R, S80I, N87S
VL: B2 VL 1
B9: IgG1-huCD3-H4L3-LFLEDA (antibody, V domains shown)
VH: B1 VH 1 with Q13K, G16R, S80I, N87S, L120M
VL: B2 VL 1
B10: IgG1-huCD3-H1L1-LFLEDA (antibody, V domains shown)
VH: B1 VH 1
VL: not shown
notes: also called IgG1-3huCD3-H1L1-LFLEDA; wild type IgG1-huCD3-H1L1-LFLEDA
B11: IgG1-huCD3-H4L1-LFLEDA (antibody, V domains shown)
VH: B1 VH 1 with Q13K, G16R, S80I, N87S, L120M
VL: not shown
B12: bsIgG1 CD3×HER2 (bispecific antibody, V domains shown)
VH 1: B1 VH 1 with V5L, G15K, R19K, K78Q, S80I, S125A
VL 1: QAVVTQESALTTSPGETVTLTCRSSTGAVTTSNYANWVQEKPDHLFTGLIGGTNKRAPGVPARFSGSLIGDKAALTITGAQTEDEAIYFCALWYSNLWVFGGGTKLTVL
VH 2: B1 VH 2
VL 2: B1 VL 2
B13: bsIgG1 huCD3-H3L1×HER2-LFLEDA (bispecific antibody, V domains shown)
VH 1: B1 VH 1 with Q13K, G16R, S80I, N87S
VL 1: not shown
VH 2: B1 VH 2
VL 2: B1 VL 2
notes: LFLEDA = L234F/L235E/D265A; also called bsIgG1 huCD3-H3L1-LFLEDA
B14: IgG1-huCD3-H1-LFLEDA-LF10L (antibody, V domains shown)
VH: B1 VH 1
VL: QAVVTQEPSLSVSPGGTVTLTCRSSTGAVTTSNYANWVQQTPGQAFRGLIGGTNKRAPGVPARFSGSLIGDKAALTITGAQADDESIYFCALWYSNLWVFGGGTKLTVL
notes: IgG1 with LFLEDA (L234F/L235E/D265A); tested as supernatant preparation; also called IgG1-huCD3-H1L1-LF10L (with LFLEDA)
B15: IgG1-huCD3-H1-LFLEDA-LK55N (antibody, V domains shown)
VH: B1 VH 1
VL: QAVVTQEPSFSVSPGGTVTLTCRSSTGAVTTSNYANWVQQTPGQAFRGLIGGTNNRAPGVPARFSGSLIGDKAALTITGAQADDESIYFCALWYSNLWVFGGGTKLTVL
notes: IgG1 with LFLEDA; supernatant preparation; also called K55N mutant
B16: IgG1-huCD3-H1-LFLEDA-LL97H (antibody, V domains shown)
VH: B1 VH 1
VL: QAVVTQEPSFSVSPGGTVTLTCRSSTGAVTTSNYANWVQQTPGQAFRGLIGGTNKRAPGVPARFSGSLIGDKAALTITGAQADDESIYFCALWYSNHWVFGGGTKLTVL
notes: IgG1 with LFLEDA; supernatant preparation
B17: IgG1-huCD3-H1-LFLEDA-LLKNH (antibody, V domains shown)
VH: B1 VH 1
VL: B2 VL 1 with F10L, T41K, K55N, I68L, L69I, N71D, D87I, Y89F, L97H
notes: IgG1 with LFLEDA; supernatant preparation; also called LKNH mutant
B18: IgG1-huCD3-H1-LFLEDA-LT41K (antibody, V domains shown)
VH: B1 VH 1
VL: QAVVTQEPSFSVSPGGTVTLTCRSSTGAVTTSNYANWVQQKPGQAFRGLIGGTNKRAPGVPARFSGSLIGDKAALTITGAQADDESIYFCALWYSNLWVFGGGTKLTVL
notes: IgG1 with LFLEDA; supernatant preparation; also called T41K mutant
B19: IgG1-huCD3-H1L1 (antibody, V domains shown)
VH: B1 VH 1
VL: not shown
notes: IgG1,λ with wild-type Fc region
B20: IgG1-huCD3-H1L3 (antibody, V domains shown)
VH: B1 VH 1
VL: B2 VL 1
notes: as for B19
B21: IgG1-huCD3-H3L1-LFLEDA (antibody, V domains shown)
VH: B1 VH 1 with Q13K, G16R, S80I, N87S
VL: not shown
B22: IgG1-huCD3-H4L1 (antibody, V domains shown)
VH: B1 VH 1 with Q13K, G16R, S80I, N87S, L120M
VL: not shown
notes: as for B19
B23: IgG1-huCD3-H3L3 (antibody, V domains shown)
VH: B1 VH 1 with Q13K, G16R, S80I, N87S
VL: B2 VL 1
notes: as for B19
B24: IgG1-huCD3-H1L2 (antibody, V domains shown)
VH: B1 VH 1
VL: B2 VL 1 with D87I, Y89F
notes: as for B19
B25: IgG1-CD3-LFLEDA (antibody, V domains shown)
VH: B1 VH 1 with V5L, G15K, R19K, K78Q, S80I, S125A
VL: B12 VL 1
notes: also called chimeric, parental CD3 antibody

What follows are binders tested against T1, cynomolgus CD3 (cynomolgus monkey, UniProt Q95LI5 22-198) (assay: flow cytometry on HSC-F cells, FIG. 7B).
T1 construct: also called CD3 on the cynomolgus T-cell line HSC-F; cynomolgus CD3ε (epsilon)
T1 sequence (Q95LI5 22-198): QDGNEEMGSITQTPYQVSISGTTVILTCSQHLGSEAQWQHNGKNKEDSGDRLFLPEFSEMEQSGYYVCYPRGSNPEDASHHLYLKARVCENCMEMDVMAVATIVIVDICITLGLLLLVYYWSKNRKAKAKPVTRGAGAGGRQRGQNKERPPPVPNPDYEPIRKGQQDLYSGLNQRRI
Protocol: (§1) In addition to the non-activating mutations, LFLEDA, the antibody variants contained F405L or K409R mutations as described in Example 1.
(§2) Cells (1×10⁵ cells/well) were incubated in polystyrene 96-well round-bottom plates (Greiner bio-one 650101) with serial dilutions of antibody preparations (range 5 to 10,000 ng/mL in 3-fold dilutions) in 100 μL PBS/0.1% BSA/0.02% azide at 4° C. for 30 min.
(§3) After washing twice in PBS/0.1% BSA/0.02% azide, cells were incubated in 100 μL with secondary antibody at 4° C. for 30 min. As a secondary antibody, R-Phycoerythrin (PE)-conjugated goat-anti-human IgG F(ab′)2 (109-116-098, Jackson ImmunoResearch Laboratories, Inc., West Grove, Pa.) diluted 1/100 in PBS/0.1% BSA/0.02% azide, was used for all experiments. Next, cells were washed twice in PBS/0.1% BSA/0.02% azide, re-suspended in 150 μL PBS/0.1% BSA/0.02% azide and analyzed on a FACS Cantoll (BD Biosciences). Binding curves were analyzed using non-linear regression (sigmoidal dose-response with variable slope) using GraphPad Prism V 5.04 software (GraphPad Software, San Diego, Calif., USA).

Binder | binding result
B1 | binds
B2 | binds
B3 | binds
B4 | binds
B5 | binds

Each binder was assayed against T2, human CD3 (human, UniProt P07766 22-207) (assay: flow cytometry on isolated human T cells, FIG. 22).
T2 construct: also called CD3 on the human T-cell line Jurkat; CD3 on human T cells
T2 sequence (P07766 22-207 limits assumed): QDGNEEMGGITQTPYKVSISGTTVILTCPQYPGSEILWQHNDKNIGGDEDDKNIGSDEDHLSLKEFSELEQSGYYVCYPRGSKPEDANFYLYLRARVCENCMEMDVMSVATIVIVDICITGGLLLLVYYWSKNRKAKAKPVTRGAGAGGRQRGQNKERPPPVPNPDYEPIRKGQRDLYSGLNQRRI
Protocol: As a secondary antibody, R-Phycoerythrin (PE)-conjugated goat-anti-human IgG F(ab′)2 (Jackson ImmunoResearch Laboratories, Inc., West Grove, Pa.) diluted 1/200 in PBS/0.1% BSA/0.02% azide, was used for all experiments. […] Binding curves were analyzed using nonlinear regression (sigmoidal dose-response with variable slope) using GraphPad Prism V 5.04 software (GraphPad Software, San Diego, Calif., USA).

Binder | EC50
B6 | 0.61 µg/mL

The binders below were run against T1, cynomolgus CD3 (assay: flow cytometry on HSC-F cells, FIG. 7A).
Protocol: as §1, §2, §3

Binder | binding result
B7 | binds
B8 | binds
B9 | binds
B10 | binds
B11 | binds

Each binder was assayed against T1, cynomolgus CD3 (assay: flow cytometry on HSC-F cells, FIG. 2B).
Protocol: as §1, §2, §3

Binder | binding result
B12 | binds
B13 | binds

Each binder was assayed against T2, human CD3 (assay: flow cytometry on Jurkat cells, supernatant preparations, FIG. 21).
Protocol: (§4) Jurkat cells (DSMZ, Brunswick, Germany) were thawed at 37° C. and washed once in 30 mL PBS and spun for 10 minutes at 300×g at 4° C. Cell pellet was resuspended in 25 mL of PBS/0.1% BSA/0.02% azide at a final concentration of 0.8×10⁶ cells/mL. 100 μL of this cell suspension (0.8×10⁵ cells/well) was transferred into polystyrene 96-well round-bottom plates (Greiner Bio-one, Alphen a/d Rijn, The Netherlands) and incubated with serial dilutions of supernatant preparations (range 3 to 10,000 ng/mL in 3-fold dilutions) in PBS/0.1% BSA/0.02% azide at 4° C. for 30 minutes. After washing three times in PBS/0.1% BSA/0.02% azide, Jurkat cells were incubated in 50 μL with secondary antibody at 4° C. for 30 min. As a secondary antibody, R-Phycoerythrin (PE)-conjugated goat-anti-human IgG F(ab′)2 (Jackson ImmunoResearch Laboratories, Inc., West Grove, Pa.) diluted 1/200 in PBS/0.1% BSA/0.02% azide, was used for all experiments. Next, Jurkat cells were washed twice in PBS/0.1% BSA/0.02% azide, re-suspended in 150 μL PBS/0.1% BSA/0.02% azide and analyzed on a FACS Cantoll (BD Biosciences). Binding curves were analyzed using nonlinear regression (sigmoidal dose-response with variable slope) using GraphPad Prism V 5.04 software (GraphPad Software, San Diego, Calif., USA).

Binder | EC50
B14 | 0.169 µg/mL
B15 | 0.531 µg/mL
B16 | 0.095 µg/mL
B17 | 0.438 µg/mL
B18 | 0.096 µg/mL

The binders below were run against T1, cynomolgus CD3 (assay: flow cytometry on HSC-F cells, FIG. 2A).
Protocol: as §1, §2, §3

Binder | binding result
B19 | binds
B20 | binds
B21 | binds
B22 | binds
B23 | binds
B24 | binds
B25 | binds

What follows are binders tested against T2, human CD3 (assay: flow cytometry on Jurkat cells, FIG. 21).
Protocol: as §4

Binder | fold lower apparent affinity than wild type IgG1-huCD3-H1L1-LFLEDA
B15 | 5 fold
B17 | 5 fold
